Measurements as given in the supplement of paper PMC12764529.
± gives the half width of the 95% confidence interval.

How the values were obtained:
[1] = folding stability dG unfold from trypsin proteolysis; higher = more stable
Method in brief: (§1)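 Mini-proteins designed to be under 80 residues and free of cysteine were carried in a PA-tagged cDNA display construct and digested with trypsin and with chymotrypsin. Each protease was applied at 11 threefold-diluted concentrations, alongside a no-protease condition, before sequencing. K50 came from Bayesian fitting of the sequencing counts, and unfolding free energy was obtained by comparing it with a sequence-predicted unfolded-state K50 and a shared folded-state K50, for each protease separately or for both together. Designs were retained only if their AlphaFold2 dimer inter-PAE exceeded 15.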

[2] = folding stability dG unfold from chymotrypsin proteolysis; higher = more stable
Method in brief: as §1

[3] = folding stability dG unfold (combined trypsin and chymotrypsin); higher = more stable
Method in brief: as §1

Sequence	folding stability dG unfold [1] [kcal/mol]	folding stability dG unfold [2] [kcal/mol]	folding stability dG unfold [3] [kcal/mol]
SAGGFRIERDGDYLRIEIRVNDPPGQPVEEAKNIMKQLFGFKDIKVDEIEPNPNGQAEIEIEIPFPKSAGGS [r16_234_TrROS]	0.658 ± 0.13	-0.3 ± 0.29	0.393 ± 0.12
SAGGFTIEELAEKFPNVEVYVQRFGNKYLIQFEFEDKDRKYQVVIKYDGPGKIDIKVMPPNQDAEEALSAGG [r13_859_TrROS]	2.1 ± 0.069	3.094 ± 0.019	2.8 ± 0.072
SAGGFVTFKAPPVLIEAFKKAGLTPSEAKTLLLPVKFGDKEVVVEVTFYPETGEVKVKVLSFGTEFEAESAG [r5_545_TrMRF]	2.22 ± 0.069	3.38 ± 0.04	3.07 ± 0.13
SAGGGAPNKPVGKETFTVKIGDKWVKVEVTHYATSGTAEVKVTGPNGGPLGTFTVKIDPEKGGVYFGSAGGS [r16_798_TrMRF]	0.728 ± 0.056	2.44 ± 0.074	2.11 ± 0.14
SAGGGFDIITITFGGIPITLTLEGEEEVKKFIEELPKLGIKTEILEKEKKIGPDGKPYVEVKVKAIPSAGGS [r8_336_JUSTAS]	0.299 ± 0.13	1.43 ± 0.14	1.19 ± 0.16
SAGGGHMMPNITVDVEEEVFTLPDGSILTRTTVTVTLPNGKKTTVETEYFYDTKTGTVSSKVVKVEASAGGS [r16_166_JUSTAS]	2.72 ± 0.11	3.45 ± 0.082	3.17 ± 0.1
SAGGGISIVSGDPEITPEKAEAIAAELAAILEEKGFTPKDAELARLPGGRILVTITVDDGKPIVFSLSAGGS [r8_485_TrMRF]	1.77 ± 0.041	1.15 ± 0.019	1.49 ± 0.028
SAGGGKKTKYVLLTFNPKEVKAEDLEKEILKKGAEIYIGDKPIDPGKGVKEVMKANPNTTFLVKIYDSAGGS [r8_38_TrMRF]	1.11 ± 0.11	1.61 ± 0.42	1.12 ± 0.32
SAGGGKLFVTEDAVLLELLYPETGEPYLAVFNPPTGLVTVYFPNRLKALFKIDPDGNLTLVKIEPANSAGGS [r16_127_TrMRF]	2.06 ± 0.093	2.979 ± 0.028	2.69 ± 0.078
SAGGGKTVEVTIEVPGENAVVYIKVYDKDKPISVFPAEFIPPTGTATFTIDVPEDAEITAEVALPEEASAGG [r13_977_TrMRF]	0.106 ± 0.033	0.904 ± 0.14	0.687 ± 0.091
SAGGGLALRLEVETERVEREVFDADGRLVAREEVEVRRVRLELVPLPPAPPPPTVTVRPGDPRDPRLRSAGG [r13_508_TrROS_Hall]	1.53 ± 0.13	3.18 ± 0.04	2.69 ± 0.13
SAGGGLGADALAKKFKELFPNAKVEKLPNGKVLFYIPETGKLIEIYDLDDEQIIKIIDPNTPKVYIISAGGS [r16_478_TrMRF]	1.68 ± 0.077	0.986 ± 0.13	1.44 ± 0.11
SAGGGMEIRLTIYRVDPETGVETSVEKEVTLEEAKEIVKEIPEEGEYTVRVTRPDRPEDVSPEELKLLSAGG [r13_254_JUSTAS]	0.246 ± 0.11	-0.0215 ± 0.16	0.192 ± 0.073
SAGGGMESRTLTLPKEEIEKVKEEIKKASNLDIKVTTKKLPNGEYELTITFSNPEDVEKFEKKLGIESAGGS [r16_172_JUSTAS]	1.99 ± 0.16	3.05 ± 0.059	2.71 ± 0.15
SAGGGMLEVTREPSPDGVTRYVVTVPADRTVTVTRPDGTTTTTAAPDADAVITYTVPPGTPVAVSLTPSAGG [r13_82_JUSTAS]	0.555 ± 0.03	-0.524 ± 0.28	0.207 ± 0.092
SAGGGMMVLKVSQPVLLLSTVTLPNGFPKFLPVSPLSLETTVTFTGSDQDAEELAAELKAQGATVTEESAGG [r13_452_JUSTAS]	0.585 ± 0.025	0.719 ± 0.12	0.715 ± 0.078
SAGGGMMWTVTFYPKETDTPITFPVPKEYITEIDEENNKIVIKKPPGETIEITDFNKIKSIEITPLPSAGGS [r8_111_JUSTAS]	0.541 ± 0.04	0.528 ± 0.18	0.586 ± 0.15
SAGGGMQAVSPVKTETKTSPDGTTTTTTTTRYPDGTVVVPVTETSPTGGAKKVATTTVSLGPPSPALASAGG [r13_494_JUSTAS]	-0.315 ± 0.085	1.07 ± 0.033	0.599 ± 0.093

Sequence	folding stability dG unfold [1] [kcal/mol]	folding stability dG unfold [2] [kcal/mol]	folding stability dG unfold [3] [kcal/mol]
SAGGGMSTTTETTIRIYVKDPQGNPVFVAELTVTVTTSPSGEVTIHLPPEFLKALPPNYTIAKIEVTSAGGS [r16_295_JUSTAS]	3.94 ± 0.21	4.13 ± 0.086	4.06 ± 0.083
SAGGGMSTYTITINIVIDPKEKKVPKPPLKDPFKLPPLKTIPITITAETSDPAVAAALEKAVKEALGLSAGG [r13_35_JUSTAS]	1.73 ± 0.038	2.19 ± 0.054	2 ± 0.069
SAGGGMTFNFTAPDGTPYEDVTTTPLPDGSTLVTVTQEDPKNPGVVTVTLIRLPSGADALEVTSGPVVSAGG [r13_370_JUSTAS]	0.972 ± 0.07	0.803 ± 0.087	0.944 ± 0.095
SAGGGMTPTITVTVHYPGETVTITLSSIEEALEYLKKQGLPINPTHSDPNTLVIEFPDGRTVTITLSSAGGS [r8_365_JUSTAS]	3.67 ± 0.15	4.15 ± 0.16	3.98 ± 0.15
SAGGGMVRPSIKITKHPDTYVATVTVTHPHRPVTVTLPFSSEPEAISEAEKIVEELIATPVPSPAGASAGGS [r16_24_JUSTAS]	0.775 ± 0.037	0.831 ± 0.072	0.841 ± 0.11
SAGGGNKPKIKVLLFFPDRVVELEFESPEEFIRALEEAGFPVIPVSEDSKYLVIEFPDGLRALADFSSAGGS [r8_365_TrMRF]	2.44 ± 0.049	2.476 ± 0.014	2.48 ± 0.046
SAGGGNVTKTSTTTLPNGTTLVTYTGTSPSSAGSKNLSLLSLPFDVTVTKVEFDPNTGKVTIETVIPPSAGG [r13_413_JUSTAS]	0.516 ± 0.059	1.25 ± 0.14	0.978 ± 0.13
SAGGGPAAEVARLLREAGYDVEVEVEVFSREENPPLLPGEPLVVRVRVYATPPTGPRRPLGEFVVPVGSAGG [r13_874_TrMRF]	1.47 ± 0.035	2.49 ± 0.029	2.17 ± 0.06
SAGGGPAKEVPILALIKARNPETGEEYELPIVITANSKEDVEAAKGLVDTLAEALRELGFTEVEVEIGSAGG [r13_360_TrMRF]	2.97 ± 0.069	2.72 ± 0.042	2.83 ± 0.058
SAGGGPDEVSEVKVSSTTTDPATGKTYTVDTTTVTTPGTVTTNTTYTVHDPVTGAVTTETTTTTTPPGSAGG [r13_206_JUSTAS]	0.583 ± 0.034	0.481 ± 0.075	0.59 ± 0.045
SAGGGPDLVIDVEILEIRVEPEPGKTATIRVRALIYNPETDTWTLAEFEIRIPDDGSVEVRFRVEPLRSAGG [r13_917_TrMRF]	3.08 ± 0.082	4.13 ± 0.05	3.76 ± 0.074
SAGGGPLSPGSVPVEEEVTEVVEDPATGTVTTRSRVRYPDGVEVEVTTTTPAPGLPEVSTTEVTVRPASAGG [r13_894_JUSTAS]	0.978 ± 0.044	0.948 ± 0.018	0.929 ± 0.11
SAGGGPPAKPVYLTVTVTTEDPVETAKKVEEEVKKLFPDAEILKVEVKKNPETNLYTVTVYVKKLVKSAGGS [r8_120_TrMRF]	2.67 ± 0.075	4.58 ± 0.079	4.3 ± 0.092
SAGGGPPSSMVKKTYTVTGTDPDALAAAVRAAIAAAHPDVEITEVTVSRDPSSDRYTVTVDVLSSVASAGGS [r8_120_JUSTAS]	2.22 ± 0.036	2.638 ± 0.017	2.51 ± 0.051
SAGGGPSMTITVTVSSSELTSGSGPGPLTPEDVAKRLEAELPPGNVTVTVVEVDPATGEVTVRIEVESAGGS [r16_284_JUSTAS]	1.17 ± 0.064	1.1 ± 0.034	1.17 ± 0.077
SAGGGREIKVEFEIPHPNGNQMRITVTIYRSPGGIRIKIPVSYTDPEYRDYMREWAEYLARRIAKELSAGGS [r8_416_TrROS]	3.05 ± 0.089	3.571 ± 0.022	3.46 ± 0.047
SAGGGRPILFRPPDGSVEVVPVPADATLEEVKEVAEAAAAARGYTELSFDPATETVTIDLGGDRVEAASAGG [r13_572_JUSTAS]	-1.46 ± 0.47	0.824 ± 0.024	0.426 ± 0.049
SAGGGSATLVGIFPEKGYLVVLTITTDGDDFSIGELKVTFEPLDDDSVKATFYTPSGQKHDAIGLPVASAGG [r13_515_TrMRF]	1.54 ± 0.053	1.42 ± 0.1	1.46 ± 0.059
